Reference: the supplement of paper PMC9112550, “Optimization of the antimicrobial peptide Bac7 by deep mutational scanning” (BMC Biology, 2022)

What follows are sequences tested on Escherichia coli TOP10 (assay: shrunken log2 fold change of peptide-encoding DNA abundance (4.5 h post-induction vs induction); higher = less antimicrobial activity (less host growth inhibition)). Details: time post-induction: 4.5 h; library: site-saturation at positions 5, 18, 19, 20.
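Note: peptides expressed intracellularly from a pBAD plasmid library in pooled LB shake-flask culture, induced with 0.3% L-arabinose, DNA abundance read by NGS, three biological replicates, DESeq2 with apeglm shrinkage.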

| Sequence | shrunken log2 fold change |
| --- | --- |
| RRIRFRPPRLPRPRPRPPKSPRP | 0.234 |
| RRIRARPPRLPRPRPRPINYPRP | -0.239 |
| RRIRQRPPRLPRPRPRPNKDPRP | -0.665 |
| RRIRGRPPRLPRPRPRPYAWPRP | 0.0018 |
| RRIRGRPPRLPRPRPRPNFRPRP | -0.00192 |
| RRIRKRPPRLPRPRPRPRHDPRP | 0.254 |
| RRIRPRPPRLPRPRPRPRGNPRP | -0.16 |
| RRIRARPPRLPRPRPRPVFPPRP | 0.207 |
| RRIRHRPPRLPRPRPRPSSGPRP | -0.427 |
| RRIRYRPPRLPRPRPRPFTPPRP | -0.889 |
| RRIRERPPRLPRPRPRPMLTPRP | 0.151 |
| RRIRMRPPRLPRPRPRPYALPRP | 0.0157 |
| RRIRIRPPRLPRPRPRPYLEPRP | -0.849 |
| RRIRNRPPRLPRPRPRPGHFPRP | 0.0512 |
| RRIRVRPPRLPRPRPRPVADPRP | 0.181 |
| RRIRIRPPRLPRPRPRPSMSPRP | -0.6 |
| RRIRPRPPRLPRPRPRPQKWPRP | 0.17 |
| RRIRTRPPRLPRPRPRPYSRPRP | 0.0299 |
| RRIRMRPPRLPRPRPRPQTMPRP | 0.276 |
| RRIRTRPPRLPRPRPRPKGKPRP | 0.34 |
| RRIRIRPPRLPRPRPRPWPWPRP | 0.0338 |
| RRIRIRPPRLPRPRPRPWDTPRP | -0.231 |
| RRIRYRPPRLPRPRPRPCLVPRP | -0.0874 |
| RRIRTRPPRLPRPRPRPEKAPRP | 0.00451 |
| RRIRDRPPRLPRPRPRPGFEPRP | 0.175 |

| Sequence | shrunken log2 fold change |
| --- | --- |
| RRIRMRPPRLPRPRPRPRKAPRP | 1.09 |
| RRIRRRPPRLPRPRPRPHPCPRP | 0.0156 |
| RRIRKRPPRLPRPRPRPDRNPRP | 0.158 |
| RRIRCRPPRLPRPRPRPFVIPRP | -0.526 |
| RRIRPRPPRLPRPRPRPMKHPRP | 0.0348 |
| RRIRVRPPRLPRPRPRPEYPPRP | -0.322 |
| RRIRPRPPRLPRPRPRPAPMPRP | 0.284 |
| RRIRHRPPRLPRPRPRPFAYPRP | -0.0167 |
| RRIRVRPPRLPRPRPRPVGQPRP | 0.0877 |
| RRIRPRPPRLPRPRPRPLQGPRP | 0.13 |
| RRIRCRPPRLPRPRPRPCYDPRP | -0.316 |
| RRIRERPPRLPRPRPRPAEAPRP | -0.0209 |
| RRIRMRPPRLPRPRPRPRLRPRP | 1.17 |
| RRIRCRPPRLPRPRPRPWSGPRP | -0.0937 |
| RRIRQRPPRLPRPRPRPEISPRP | 0.139 |
| RRIRSRPPRLPRPRPRPGCGPRP | 0.62 |
| RRIRARPPRLPRPRPRPMNKPRP | -0.00986 |
| RRIRIRPPRLPRPRPRPLQPPRP | 0.327 |
| RRIRVRPPRLPRPRPRPYPKPRP | -0.858 |
| RRIRTRPPRLPRPRPRPSTMPRP | -0.669 |
| RRIRYRPPRLPRPRPRPERDPRP | 0.0217 |
| RRIRWRPPRLPRPRPRPSWKPRP | -0.0536 |
| RRIRPRPPRLPRPRPRPCWWPRP | 0.742 |
| RRIRQRPPRLPRPRPRPRTSPRP | 0.131 |
| RRIRFRPPRLPRPRPRPRLDPRP | 0.0416 |

| Sequence | shrunken log2 fold change |
| --- | --- |
| RRIRSRPPRLPRPRPRPIIHPRP | -0.526 |
| RRIRYRPPRLPRPRPRPELYPRP | -0.106 |
| RRIRFRPPRLPRPRPRPITPPRP | -0.128 |
| RRIRCRPPRLPRPRPRPGSAPRP | 0.148 |
| RRIRDRPPRLPRPRPRPQFRPRP | -0.296 |
| RRIRKRPPRLPRPRPRPEMVPRP | 0.422 |
| RRIRWRPPRLPRPRPRPYDHPRP | -0.207 |
| RRIRSRPPRLPRPRPRPGVFPRP | 0.146 |
| RRIRHRPPRLPRPRPRPYFYPRP | -0.881 |
| RRIRDRPPRLPRPRPRPMFFPRP | 0.125 |
| RRIRPRPPRLPRPRPRPELEPRP | 0.219 |
| RRIRQRPPRLPRPRPRPVQWPRP | -0.03 |
| RRIRPRPPRLPRPRPRPANCPRP | 0.0263 |
| RRIRPRPPRLPRPRPRPTMHPRP | 0.0766 |
| RRIRDRPPRLPRPRPRPVHPPRP | 0.184 |
| RRIRNRPPRLPRPRPRPAVDPRP | 0.0455 |
| RRIRVRPPRLPRPRPRPNLSPRP | -0.444 |
| RRIRNRPPRLPRPRPRPHGFPRP | 0.0815 |
| RRIRHRPPRLPRPRPRPQDMPRP | -0.129 |
| RRIRERPPRLPRPRPRPPEVPRP | 0.452 |
| RRIRKRPPRLPRPRPRPNTGPRP | 0.382 |
| RRIRPRPPRLPRPRPRPCRMPRP | -0.0012 |
| RRIRERPPRLPRPRPRPIMDPRP | -0.247 |
| RRIRGRPPRLPRPRPRPLINPRP | 0.116 |
| RRIRVRPPRLPRPRPRPEQFPRP | 0.0357 |
